In publication PMC7186176, “Structural basis of cell-surface signaling by a conserved sigma regulator in Gram-negative bacteria” (The Journal of Biological Chemistry, 2020):

B1: PupR CCSSD (PupR residues 110–324, MBP cleaved) (domain or fragment, Pseudomonas capeferrum)
chain: GAMGQDWRADYHSRIGEQRRLTLADGTQVQLNTDSALNVAFDQQARRLRLVRGEMLITRPALADSRPLWVDTEHGRLESTLAQFNVRLHGQHTQATVYQGSVALQPALHAYPPILLGAGEQASFNQQGLLARQAVAAVAPAWSQGMLVAQGQPLAAFIEDLARYRRGHLACDPALAGLRVSGTFPLENTDKIIAAVAETLQLEVQHFTRYWVTLKPRMA
notes: 4-residue cloning artifact left after TEV cleavage; PupR, inner membrane sigma regulator of Pseudomonas capeferrum (formerly Pseudomonas putida WCS358), periplasmic CCSSD, residues 110-324; 219-residue product with the GAMG artifact; About 90% pure, some MBP contamination; also called native PupR CCSSD; not shown: MBP, N-terminal, cleaved
B2: MBP-tagged PupR CCSSD (PupR residues 110–324) (domain or fragment, Pseudomonas capeferrum, UniProt Q52209 110-324, looked up)
chain: QDWRADYHSRIGEQRRLTLADGTQVQLNTDSALNVAFDQQARRLRLVRGEMLITRPALADSRPLWVDTEHGRLESTLAQFNVRLHGQHTQATVYQGSVALQPALHAYPPILLGAGEQASFNQQGLLARQAVAAVAPAWSQGMLVAQGQPLAAFIEDLARYRRGHLACDPALAGLRVSGTFPLENTDKIIAAVAETLQLEVQHFTRYWVTLKPRMA
notes: PupR, inner membrane sigma regulator of Pseudomonas capeferrum (formerly Pseudomonas putida WCS358), periplasmic CCSSD, residues 110-324; also called complete CCSSD; C-terminal cell-surface signaling domain; source: E. coli BL21(DE3)pLysS, co-expressed with GST-PupB NTSD, clarified lysate (pull-down); not shown: MBP, N-terminal, kept
B3: PupB NTSD (purified) (domain or fragment, Pseudomonas capeferrum, UniProt P38047 49-128, looked up)
chain: AQADFDIPAGPLAPALAHFGQSAHILLSYPTALTEGRSTSGLAGRFDIDQGLAILLAGTGLEASRGANASYSLQASASTG
notes: PupB, outer membrane TonB-dependent transducer of Pseudomonas capeferrum (formerly Pseudomonas putida WCS358), N-terminal signaling domain; also called N-terminal signaling domain of PupB

Columns and labels:
Details in all cases: both partners purified
PupB NTSD (purified) [1] = molecular target: B3; assay: SEC-SAXS; inline Superdex 200 Increase 10/300; 25 mM HEPES pH 7.5, 400 mM LiCl, 10% glycerol; 800 μM complex (1:1 mix, 30 min at room temperature) or 400 μM PupR CCSSD alone injected; ambient temperature
PupB NTSD (purified) [2] = molecular target: B3; assay: ITC; MBP-tagged PupR CCSSD (220-235 μM) titrated into PupB NTSD (27.5-40 μM); 15 °C; 25 mM HEPES pH 7.5, 400 mM LiCl, 10% glycerol; global fit of three runs in SEDPHAT with a local incompetent fraction
PupB NTSD (purified) [3] = molecular target: B3; assay: as above; remark: listed apart in the source
[4] = molecular target: B2; assay: as above

With B1 the “stoichiometry N” value (PupB NTSD (purified) [1]) was 1.

In the case of B2, the “stoichiometry N” value (PupB NTSD (purified) [2]) is reported as 1 and the dH (PupB NTSD (purified) [3]) is reported as -17.7 kcal/mol.

A Kd [4] of 690 nM was found for B3 in this work.
